Assay: yeast display, Sf9 membrane polyspecificity reagent, FACS + sequencing; frameworks hold sequencing errors
Summary of the method: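 Polyreactivity labels are assigned by the sorting gate from which each nanobody was recovered. The gates were low and high (top ~1%), set on anti-HA fluorescence for expression and streptavidin fluorescence for reagent binding. Before sorting, galactose-induced (36–48 hours) yeast display cells were stained for 1 hour at 4 °C with 10% biotinylated, detergent-solubilized Sf9 membrane reagent.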

Row | Sequence | polyreactivity (PSR sort gate)
1 | QVQLVESGGGLVQAGGSLRLSCAASGLTFRYYAMGWYRQAPGKERELVAAISRSGGSTYYADSVKGRFTISRDNAKNTVYLQMNSLKPEDTAVYYCAAGRRGGKQGGTRGGDYWGQGTQVTVSS | high polyreactivity
2 | QVQLVESGGGLVQAGGSLRLSCAASGFTFARYAMGWYRQAPGKERELVASISGSGGSTYYADSVKGRFTISRDNAKNTVYLQMNSLKPEDTAVYYCAADTWYGFDWGQGTQVTVSS | high polyreactivity
3 | QVQLVESGGALVQAGGSLRLSCAASGSTFSYNAMGWYSQAPGKERELVAAISSRGSSTYYADSVKGRFTISRDNAKNTVYFQINSLKPEDTAVYDCAARSYWGGLRYDYWGQGTQVTVSS | high polyreactivity
4 | QVHLVESGGGLVQAGGSLRLSCAASGGIFSYYALGWYRQAPGKERELVAAISSGGTTYYADSVKGRFTISRDNAKNTVYLQMNSLKPEDTAVYYCALLVGHNYWGQGTQVTVSS | low polyreactivity
5 | QVQLVESGGGVVQAGGSLRLSCAASGSTCSWYVMGWYRQAPGKERELVASISRSGGSTYYADSVKGRFTISRDNAKNTVYLQMNSLKPEDTAVYYCAARQAGYSGRKLYYWAQGTQVTVSS | low polyreactivity
6 | QVQLVESGGGLVQAGGSLRLSCAASGRTFSRNAMGWYRPAPGKERQLVAAIRGSGTGTYYADSVKGRFTISRDNAKNTVYLQMNSLKPEDTPVYYSNADFISTRPPKATDEDYWGQGTQVTVSS | high polyreactivity
7 | QVQLVESGGGLVQAGGSLRLSCAASGRIFYYYTMGWYRQAPGKERELVADISRGGSTYYADSVKGRFTISRDNAKNTVYLQMNSLKPEDTAVYYCNAVTRIQTSYPSNWGMMDYWGQGTQVTVSS | low polyreactivity
8 | QVQLVESGGGLVEAGGSLRLSCAASGSTFVIYTIGCYRQAPGTQRELVAAISSSGGITYYSDSVKGRFTISRDNAKNTVYLQMNSLKPEDTAVYYCAADSRSAYSPYYYWGQGTQVTVSS | high polyreactivity
9 | QFQLVESGRGLVQAGGSLRLSCAASGRIFSYNTLGWYRQAPGKERELVAAITNNGGSTYYADSVKGRFTISRDNAKNTVYLQMNSLKPEDTAVYYCNRDRYPFYYAYNYWGQGTQVTVSS | low polyreactivity
10 | QEQLVESGAGLVQAGGSLRLSCAASGSIFTLYGMGRYRQAPGKERELVAAITWSGGRTYYADSVKGRFTISRDNAKNTVYLQMNSLKPEDTAVYYCAAYRYVSWYYPDDYWGQGTQVTVSS | high polyreactivity
11 | QVQLVESGGGLVQAGGSLRLSCAASGRIFDLYAMRWYRQAPGKESELVAAISIRGGSTYYADSVKGRFTISRDNAKNTVYLQMNSLKPEDTAVYYCAAEGPWLSDEYDYWGQGTQVTVSS | low polyreactivity
12 | QVQLVESGGGLVQAGGSLRLSCAASGIIFTPYTMGWYRQAPGKERELVAAITGSGGSTYYADSVKGRFTISRDNAKNTVYLQMNSLKPEDTAVYYCAAYKQYRFYRYDYWGQGTQVTVSS | high polyreactivity
13 | QVQLVESGGGLVQAGGSLRLSCADSGRTFTKYAMGRYRQAPGKERELVAAISRSGGSTYYADSVKGRFTISRVNAKNTVYLQMNSLKPEDTAVYYCAARRYRASSRGYGYWGQGTQVTVSS | high polyreactivity
14 | QVQLVESGGGLVQAGGSLRLSCAASGSTFTDYAMGWYRQAPGKERELVAAIRFSGGSTYYADSVKGRFTISRDNAKTTVYLQMNSLKPEDTAVYYCAAAGYPWLDSWGQGTQVTVSS | low polyreactivity
15 | QVQLVESGGGLVQAGGSLRLSCAASGRIFSFNAMGWYRQAPGKERELVATISWNGDSTYADSVKGRFTISRDNAKNTVYLQMNSLKPEDTAVYYCAVDVPPWDYDYWGQGTQVTVSS | low polyreactivity
16 | QVQLVESGGGLVQAGGSLRLSCAASGNIFTSYAMGWYRQAPGKERELVAAISSGGRTSYADSVKGRFTISRDNAKNTVYLQMNSLKPEDTAVYYCAAYYRRWPREYYYWGQGTQVTVSS | high polyreactivity
17 | QVQLVESGGGLVQAGVSLRLSCAASGRTFVSNAMGWYRQAPGKEREFVAAIRDSGGRTYYADSVKGRFTISRDNANNTVYLQMTSLIPEDTAVYYCATRGVSPSRPGYYWGQGTQVTVSS | high polyreactivity
18 | QVQLVDSGGGLVQAGGSLRLSCAASGSTFVYYAMGWYRQAPGKERELVAAISSGGRTYYADSVKGRFTISRDNAKNTVYFQMNSLKPEDTAVYYCATYPRYSKSPGYDSWGQGTQVTVSS | high polyreactivity
19 | QVQLVESGGGVVQARGSLRLSCAASGRIFYGYAMGWYRQAPGKERELVAAITRSSSTYYADSVKGRFTISRDNAKNTVYLQMNSLKPEDTAVYYCAAASRRSGASSWYDYWGQGTQVTVSS | high polyreactivity
20 | QVQLVESGGGLVQAGGSLRLSCAASGYIFAAYTMGWYRQAPGKEREFVAAITRSGGSTYYADSVKWRFTISRDNAKNTVYLQMNSLKPEDTAVYYCAARRWRYFPDYDYWGQGTQVTVSS | high polyreactivity
21 | QVQLVESAGGLVQAGGSLRLSCAASGFIFRFNAMGWYRQAPGKERELVAAISWSGSSTYYADSVKGRFTISRDNAKNTVYLQMNSLKPEDTAVYYCATSAFYYKIVKGDFYYWGQGTQVTVSS | high polyreactivity
22 | QVQLVESGGGLVQAGGSLRLSCAASGFTFQWYGMGWYRQAPGKERELVAAITWSGGRTNYADSVKGRFTISRDNAKNTVYLQMNSLKPEDTAVYYCNKVFPRRGGDDNYWGQGTQVTVSS | high polyreactivity

Row | Sequence | polyreactivity (PSR sort gate)
23 | QVQLVESGGGLVQAGGSLRLSCAASGLIFYTYAMGWYRQAPGKERELVADINRSDGSTYYADSVKGRFTISRDNAKNTVYLQMNRLKPEDTAVYYCAVVGPYYSRFGGRYYYWGQGTQVTVSS | low polyreactivity
24 | QVQLVESGGGLVQAGGSLRLSCAASGSIYESYAMGWYRQAPGKERELVADITYDGGITYYADSVKGRFTISRDNAKNTVYLQMNSLKPEDTAVYYCATEYRYWLSDYSTYFPYDYWGQGSQVTVSS | low polyreactivity
25 | QVQLVESGGGLVQAGGSLRLSCAASGSIFYINAMGWYRQAPGKEREFVATITWSGDSTYYADSVKGRFTISRDNAKNTVYLQMNSLKPDDTAVYYCNARKQYPSYVDWEYDYWGQGTQVTVSS | low polyreactivity
26 | QVQLVESGGGLVQAGGSLRLSCAASGLTFTINAMGWYRQAPGKERELVAAITGNNTSTYYADSVKGRFTISRDNAKNTVYLQMNSLKPEDTAVYYCAASVYHYGPLYYWGQGTQVTVSS | low polyreactivity
27 | QVQLVESGGGLVQAGGSLRLSCAASGRTLKVYAMGWYRQAPGKERELVAAINNGGSTNYADSVKGRFTISRDNAKNTVYLQMNSLKPEDTAVYYCNAVYYARYRNYTYYYWGQGTQVTVSS | high polyreactivity
28 | QVQLVESGGGLVQAGGSLRLSCAASGSTFYIYAMGWYRQAPGKERELVARISGSGGSTYYSDSVKGRFTISRDNSKNTVYLQMNSLKPEVTAVYYCAADDIYKYYQYYAFPYYRYDYWGQGTQVTVSS | low polyreactivity
29 | QVQLVESGGGLVQAGGSLRLSCAASGVTFVDYAMGWYRQAPGKERELVAAITVSGDSTYYADSVKGRFTLSRDNAKNTVYLQMNSLKPEDTAVYYCAADPGYYDGGYWGQGTQVTVSS | low polyreactivity
30 | QVQLVESGGGLVQAGGSLRLSFAASGFTFYYYTMGWYRQEPGKERELVAGISRRRGSTRYADSVKGRFTISRDNAKNTVYLQMNSLKPEDTAVYYCAAYPVVTEFDYWGQGTQVTVSS | high polyreactivity
31 | QVQLVESGGGLVQAGGSLRLSCAASGSIFRHYAMGWYRQAPGKERELVAAISAIGGSTYADSVKGRFTISRDNAKNTVYLQMNSLKPEDTAVYYCNARSYTSYVYHEAGEFDYWGQGTQVTVSS | low polyreactivity
32 | QVQLVESGGGLVQAGGSLRLSCAASGSIFGYSAMGWYRQAPGKERELVAAIDSGGSTYYADSVKGRFTISRDNAKNTVYLQMNSLKPQDTAVYYCAAGVSSFSPYDSWGQGTQVTVSS | low polyreactivity
33 | QVQLVESGGGLVQAGGSLRLSCAASGRIFAKNTMGWYRQAPGKERELVAAITWSSGNTDYADSVKGRFTISRDNAKNTVYLQMNSLKPEDTAVYYCAAYPRWTYWGYVERYYWGQGTQVTVSS | high polyreactivity
34 | QVQIVESGGGLVQAGGSLRLSCAASGTFSFYAMGWYRQAPGKERELVATIRSGGRTYYADSVKGRFTISRDNAKNTVYLQMNSLKPEDTAVYYCAKTGFLGLRQYGYWGQGTQVTVSS | high polyreactivity
35 | QVQLVESGGGLVQAGGSLRLSCAASGSIVSYYAMGWYRQAPGIERELVAAITTRGGRSYYADSVMGRFTISRDYAKNTVYLPMNSLKPEDTAVYYFNRYPGYIQGDYDYWGQGTQVTVSS | high polyreactivity
36 | QVQLVESGGGLVQAGGSLRLSCAASGITFATYAMGWYRQAPGKERELVAAISGGGGRTYYADSLKGRFTISRDNAKNTVYLQMNSLKPEDTAVYYCATAQRSSQFYHWGQGTQVTVSS | high polyreactivity
37 | QVQRVESGGGLVQAGGSLRLSCAASGFTFVEYAMGWYRQAPGKERELVAAISVSGGSTYYADSVKGRFTISRDNAKNTVYLQMNSLKPEDTAVYYCNATGYQVGSITIYDYWGQGSQVTVSS | low polyreactivity
38 | QVQLVESGGGLVQAGGSLRLICAASGSTFTRYAMGWYRQAPGKERELVAAITSSGSRTYYADSVKGRFTISRDNAQNTVYLQMNSLKPEDTAVYYFAALGDTRYVGMDHWGQGTQVTVSS | high polyreactivity
39 | QVQLVESGGGLVQAGGSLRLSCAASGRIFDYNTLGWYRQAPGKERELVAAISASGTRTYYADSVKGRFTISRDNAKNTVYLQMNSLKPEDTAVYYCAAVYSYIASYLRYDYWGQGTQVTVSS | high polyreactivity
40 | QVQLVESGGGLVQAGGSLRLSCAASGFTFSKYTMGWYRPAPGKERELVAAITSGGSTNYADSVKGRFTISRDNAKNTVYLQMNSLKPEDTAVYYCNKRHIAHNGVGAGLELDYWGQGTQVTVSS | low polyreactivity
41 | QVQLVESGGGLVQAGGSLRLSCAASGITLFYSAMGWYRQAPGKERELVAAISWSGGSTYYADSVKGRFTISRDNAKNTVYLQMNSLKPEDTAVYYCAAGYIRFYRSREYWGQGTQVTVSS | high polyreactivity
42 | QVQLVESGGGLVQAGGSLRLSCAASGRIFDRYAMGWYRQAPGKERELVATIDSGGSTNYADSVKGRFTISRDNAKNTVYLQMNSLKPEDTAVYYCAVVTHSGYWSYYYWGQGTQVTVSS | low polyreactivity
43 | QVQRVETGGGLVQAGGSLRLSCAASGRTIRVYAMGWYRQPPGKETELVPAISGSGGSTYYADSVKGRFTISRDNAKNTVYLQMNSLKPEDTAVYFCYAASWTFQTTPKYDYWGQGTLVTVSS | high polyreactivity

— the nanobody polyreactivity screen of Harvey et al. (2022)
